Assay results: patent US7410949 (Hoffmann-La Roche, dated 2008)
*1 amine or outer side, *2 acyl side, *3 side chain or, on linkers, in order; H or OH if unused. [ ]: non-standard residue; d: D form. Pqa = N-piperazin-1-yl-4(3H)-quinazolinone-3-acetic acid, O=C(Cn1cnc2ccc(N3CCN([*:1])CC3)cc2c1=O)[*:2]; Phe(3,4,5-F3) = N[C@@H](Cc1cc(F)c(F)c(F)c1)C(=O)O; Phe(F5) = N[C@@H](Cc1c(F)c(F)c(F)c(F)c1F)C(=O)O; 1Nal = N[C@@H](Cc1cccc2ccccc12)C(=O)O; 2Nal = N[C@@H](Cc1ccc2ccccc2c1)C(=O)O; 3Pal = N[C@@H](Cc1cccnc1)C(=O)O; Nle = CCCC[C@H](N)C(=O)O

B1: H-Ile-Lys-Pqa-Arg-(NMe)His-Tyr-Leu-Asn-Leu-Val-Thr-Arg-Gln-Arg-Tyr-NH2 (peptide)
peptide: IKRHYLNLVTRQRY
modifications: N-methyl His at PYY position 26 (residue 2 of the second part); Pqa moiety between the two parts; C-terminal amide
B2: Ac-Ile-Nle-Pqa-Arg-(3-Pal)-Tyr-Leu-Asn-Leu-Val-Thr-Arg-Gln-Arg-Tyr-NH2 (peptide)
peptide: Ac-I[Nle][Pqa]R[3Pal]YLNLVTRQRY-NH2
SMILES: CCCC[C@H](NC(=O)[C@@H](NC(C)=O)[C@@H](C)CC)C(=O)N1CCN(c2ccc3ncn(CC(=O)N[C@@H](CCCNC(=N)N)C(=O)N[C@@H](Cc4cccnc4)C(=O)N[C@@H](Cc4ccc(O)cc4)C(=O)N[C@@H](CC(C)C)C(=O)N[C@@H](CC(N)=O)C(=O)N[C@@H](CC(C)C)C(=O)N[C@H](C(=O)N[C@H](C(=O)N[C@@H](CCCNC(=N)N)C(=O)N[C@@H](CCC(N)=O)C(=O)N[C@@H](CCCNC(=N)N)C(=O)N[C@@H](Cc4ccc(O)cc4)C(N)=O)[C@@H](C)O)C(C)C)c(=O)c3c2)CC1
B3: H-Ile-Lys-Pqa-(D)Arg-His-Tyr-Leu-Asn-Leu-Val-Thr-Arg-Gln-Arg-Tyr-NH2 (peptide)
peptide: IKRHYLNLVTRQRY
modifications: (D)Arg at PYY position 25 (residue 1 of the second part); Pqa moiety between the two parts; C-terminal amide
B4: H-Ile-Lys-Pqa-(NMe)Arg-His-Tyr-Leu-Asn-Leu-Val-Thr-Arg-Gln-Arg-Tyr-NH2 (peptide)
peptide: IKRHYLNLVTRQRY
modifications: N-methyl Arg at PYY position 25 (residue 1 of the second part); Pqa moiety between the two parts; C-terminal amide
B5: Ac-Ile-Nle-Pqa-Arg-His-(3,4,5trifluorPhe)-Leu-Asn-Leu-Val-Thr-Arg-Gln-Arg-Tyr-NH2 (peptide)
peptide: Ac-I[Nle][Pqa]RH[Phe(3,4,5-F3)]LNLVTRQRY-NH2
SMILES: CCCC[C@H](NC(=O)[C@@H](NC(C)=O)[C@@H](C)CC)C(=O)N1CCN(c2ccc3ncn(CC(=O)N[C@@H](CCCNC(=N)N)C(=O)N[C@@H](Cc4c[nH]cn4)C(=O)N[C@@H](Cc4cc(F)c(F)c(F)c4)C(=O)N[C@@H](CC(C)C)C(=O)N[C@@H](CC(N)=O)C(=O)N[C@@H](CC(C)C)C(=O)N[C@H](C(=O)N[C@H](C(=O)N[C@@H](CCCNC(=N)N)C(=O)N[C@@H](CCC(N)=O)C(=O)N[C@@H](CCCNC(=N)N)C(=O)N[C@@H](Cc4ccc(O)cc4)C(N)=O)[C@@H](C)O)C(C)C)c(=O)c3c2)CC1
B6: H-Ile-NMeLys-Pqa-Arg-His-Tyr-Leu-Asn-Leu-Val-Thr-Arg-Gln-Arg-Tyr-NH2 (peptide)
peptide: IKRHYLNLVTRQRY
modifications: N-methyl Lys at PYY position 4 (residue 2 of the first part); Pqa moiety between the two parts; C-terminal amide
B7: H-NMeIle-Lys-Pqa-Arg-His-Tyr-Leu-Asn-Leu-Val-Thr-Arg-Gln-Arg-Tyr-NH2 (peptide)
peptide: IKRHYLNLVTRQRY
modifications: N-methyl Ile at PYY position 3 (residue 1 of the first part); Pqa moiety between the two parts; C-terminal amide
B8: H-Ile-Lys-Pqa-Arg-His-Tyr-(D)Leu-Asn-Leu-Val-Thr-Arg-Gln-Arg-Tyr-NH2 (peptide)
peptide: IKRHYLNLVTRQRY
modifications: (D)Leu at PYY position 28 (residue 4 of the second part); Pqa moiety between the two parts; C-terminal amide
B9: Ac-Ile-Nle-Pqa-Arg-His-(2,3,4,5,6 Penta fluoroPhe)-Leu-Asn-Leu-Val-Thr-Arg-Gln-Arg-Tyr-NH2 (peptide)
peptide: Ac-I[Nle][Pqa]RH[Phe(F5)]LNLVTRQRY-NH2
SMILES: CCCC[C@H](NC(=O)[C@@H](NC(C)=O)[C@@H](C)CC)C(=O)N1CCN(c2ccc3ncn(CC(=O)N[C@@H](CCCNC(=N)N)C(=O)N[C@@H](Cc4c[nH]cn4)C(=O)N[C@@H](Cc4c(F)c(F)c(F)c(F)c4F)C(=O)N[C@@H](CC(C)C)C(=O)N[C@@H](CC(N)=O)C(=O)N[C@@H](CC(C)C)C(=O)N[C@H](C(=O)N[C@H](C(=O)N[C@@H](CCCNC(=N)N)C(=O)N[C@@H](CCC(N)=O)C(=O)N[C@@H](CCCNC(=N)N)C(=O)N[C@@H](Cc4ccc(O)cc4)C(N)=O)[C@@H](C)O)C(C)C)c(=O)c3c2)CC1
B10: Ac-Ile-Nle-Pqa-Arg-His-(2)Nal-Leu-Asn-Leu-Val-Thr-Arg-Gln-Arg-Tyr-NH2 (peptide)
peptide: Ac-I[Nle][Pqa]RH[2Nal]LNLVTRQRY-NH2
SMILES: CCCC[C@H](NC(=O)[C@@H](NC(C)=O)[C@@H](C)CC)C(=O)N1CCN(c2ccc3ncn(CC(=O)N[C@@H](CCCNC(=N)N)C(=O)N[C@@H](Cc4c[nH]cn4)C(=O)N[C@@H](Cc4ccc5ccccc5c4)C(=O)N[C@@H](CC(C)C)C(=O)N[C@@H](CC(N)=O)C(=O)N[C@@H](CC(C)C)C(=O)N[C@H](C(=O)N[C@H](C(=O)N[C@@H](CCCNC(=N)N)C(=O)N[C@@H](CCC(N)=O)C(=O)N[C@@H](CCCNC(=N)N)C(=O)N[C@@H](Cc4ccc(O)cc4)C(N)=O)[C@@H](C)O)C(C)C)c(=O)c3c2)CC1
B11: H-Ile-Lys-Pqa-Arg-His-(D)Tyr-Leu-Asn-Leu-Val-Thr-Arg-Gln-Arg-Tyr-NH2 (peptide)
peptide: IKRHYLNLVTRQRY
modifications: (D)Tyr at PYY position 27 (residue 3 of the second part); Pqa moiety between the two parts; C-terminal amide
B12: Ac-Ile-Nle-Pqa-Arg-His-(1)Nal-Leu-Asn-Leu-Val-Thr-Arg-Gln-Arg-Tyr-NH2 (peptide)
peptide: Ac-I[Nle][Pqa]RH[1Nal]LNLVTRQRY-NH2
SMILES: CCCC[C@H](NC(=O)[C@@H](NC(C)=O)[C@@H](C)CC)C(=O)N1CCN(c2ccc3ncn(CC(=O)N[C@@H](CCCNC(=N)N)C(=O)N[C@@H](Cc4c[nH]cn4)C(=O)N[C@@H](Cc4cccc5ccccc45)C(=O)N[C@@H](CC(C)C)C(=O)N[C@@H](CC(N)=O)C(=O)N[C@@H](CC(C)C)C(=O)N[C@H](C(=O)N[C@H](C(=O)N[C@@H](CCCNC(=N)N)C(=O)N[C@@H](CCC(N)=O)C(=O)N[C@@H](CCCNC(=N)N)C(=O)N[C@@H](Cc4ccc(O)cc4)C(N)=O)[C@@H](C)O)C(C)C)c(=O)c3c2)CC1
B13: H-Ile-Lys-Pqa-Arg-His-Tyr-Leu-Asn-Leu-Val-Thr-Arg-Gln-Arg-(D)Tyr-NH2 (peptide)
peptide: IKRHYLNLVTRQRY
modifications: (D)Tyr at PYY position 36 (residue 12 of the second part); Pqa moiety between the two parts; C-terminal amide
B14: H-Ile-Lys-Pqa-Arg-(D)His-Tyr-Leu-Asn-Leu-Val-Thr-Arg-Gln-Arg-Tyr-NH2 (peptide)
peptide: IKRHYLNLVTRQRY
modifications: (D)His at PYY position 26 (residue 2 of the second part); Pqa moiety between the two parts; C-terminal amide

Target: Y4R
Assay: cell-based or functional assay

Y4R EC50(nM) FLIPR, > 5000 nM:
B1, B2, IKRHYLNLVTRQRY (N-terminal acetyl; Pqa moiety between the two parts; C-terminal amide) [Ac-Ile-Lys-Pqa-Arg-His-Tyr-Leu-Asn-Leu-Val-Thr-Arg-Gln-Arg-Tyr-NH2], B3, B4, B5, B6, B7, B8, B9, B10, B11, B12, B13, B14
